Source: patent publication US12709742B2, “RNA expression modulating or editing method via regulation of Cas13 protein” (Korea Advanced Institute of Science and Technology, priority 2021, dated 2026)

Test system: Firefly luciferase target RNA
Assay: Dual luciferase reporter assay of paCas13 fragments under blue light stimulation
Assay type: cell-based
Details: 488 nm blue light for 24 hours
Protocol: Specifically, to evaluate the changes in protein levels, HEK293T cells (ATCC) were co-transfected with 10 ng of a double luciferase reporter plasmid (Promega), 75 ng of each inducible Cas13 fragment expressing the plasmid, and 100 ng of a crRNA expression plasmid. 16 hours prior to transfection, the cells were placed in a 96-well plate (Corning) and allowed to grow until reaching 80% confluency. On the next day, 10 μL of Opti-MEM and 10 μL of Opti-MEM containing 0.6 μL of lipofectamine LTX and 0.26 μL of PLUS reagent and all transfected DNA plasmids were mixed, and a total of 20 μL of Opti-MEM I reducing serum medium (ThermoFisher) was added to each well. All solutions were incubated for 5 minutes before slowly added to the cells. […] The experiment was performed in triplicate. The decrease in the target RNA, the Firefly transcript, was confirmed by comparing the expression value at the protein level of the control group Renilla.
Luciferase reporter assay was performed to confirm whether the Cas13b protein was activated by light stimulation when the construct designed in Example 3 was used.
To test the light-inducible RNA targeting of paCas13, the target RNA knockdown activity of paCas13 fragments was evaluated using a dual luciferase system under the blue light stimulation for 24 hours with an LED plate emitting 488 nm of blue light (FIG. 8). […]

Target mRNA cleavage with pMag in combination with dimerization partner: Efficient target mRNA cleavage was seen
B1: nMagH: paCas13 fragments fused with pMag and nMagH (nMag with M135I and M165I mutations) (protein)
chain: HTLYAPGGYDIMGYLDQIGNRPNPQVELGPVDTSCALILCDLKQKDTPIVYASEAFLYMTGYSNAEVLGRNCRFLQSPDGMVKPKSTRKYVDSNTINTIRKAIDRNAEVQVEVVNFKKNGQRFVNFLTIIPVRDETGEYRYSMGFQCETE
modifications: nMagHigh1 amino acid sequence
